Measured values published in patent US20060140858A1, “Drug pre-targeting by means of bi-specific antibodies and hapten constructs comprising a carrier peptide and the active agent(s)” (Immunomedics, Inc., priority 2002, published 2006).
Where a SMILES comes first, the peptide text is derived from it. The star is where a group is joined. DTPA = O=C(O)CN(CCN(CC(=O)O)CC(=O)O)CCN(CC(=O)O)CC(=O)*

Assays:
[1] = Pretargeting: 125-I-hMN-14 × 734 bsAb, 48 h later 111-In-indium-IMP-156, biodistribution; type: in vivo, nude mice; details: female, nude (Taconic NCRNU), mouse, 3 h post peptide
[2] = system: GW-39 tumor xenografts; assay: as above; type: in vivo, nude mice; details: 3 h post peptide
[3] = Control group: clearance of 111-In-indium-IMP-156 alone; type: in vivo, nude mice; details: female, NCRNU nude, mouse, total radioactivity
[4] = system: GW-39 tumor xenografts; assay: as above; type: in vivo, nude mice; details: 3 h
[5] = Pretargeting: I-125 F6 × 734-F(ab′)2, 72 h later In-111-IMP-225, biodistribution; details: female, mouse, in vivo, 10 uCi, total radioactivity, % ID/g tissue

Structure (SMILES): CC(=O)N[C@@H](Cc1ccccc1)C(=O)N[C@@H](CCCCNC(=O)CN(CCN(CCN(CC(=O)O)CC(=O)O)CC(=O)O)CC(=O)O)C(=O)N[C@@H](Cc1ccc(O)cc1)C(=O)N[C@@H](CCCCNC(=O)CN(CCN(CCN(CC(=O)O)CC(=O)O)CC(=O)O)CC(=O)O)C(N)=O [IMP 156, Ac-Phe-Lys(DTPA)-Tyr-Lys(DTPA)-NH2] (Ac-FK(DTPA)YK(DTPA)-NH2)
- tissue uptake at 3 h ([1]; Blood): 0.7 ± 0.2 %ID/g
- tissue uptake at 3 h ([1]; Kidney): 1.9 ± 0.5 %ID/g
- tissue uptake at 3 h ([1]; Lungs): 0.4 ± 0.1 %ID/g
- tissue uptake at 3 h ([1]; tumor): 52 ± 1.9 %ID/g
- T/NT ([2]; Blood): 7.6 ± 1.5
- T/NT ([2]; Kidney): 2.6 ± 0.5
- T/NT ([2]; Liver): 10.6 ± 3.5
- T/NT ([2]; Lungs): 12 ± 2
- T/NT ([2]; Spleen): 12 ± 6
- T/NT ([2]; tumor): 1
- tissue uptake at 3 h ([3]; Blood): 0.05 ± 0.01 %ID/g
- tissue uptake at 3 h ([3]; Kidney): 0.93 ± 0.13 %ID/g
- tissue uptake at 3 h ([3]; Liver): 0.42 ± 0.1 %ID/g
- tissue uptake at 3 h ([3]; Lungs): 0.04 ± 0.01 %ID/g
- tissue uptake at 3 h ([3]; Spleen): 0.28 ± 0.09 %ID/g
- tissue uptake at 3 h ([3]; Tumor): 0.14 ± 0.02 %ID/g
- T/NT ([4]; Blood): 3.1 ± 0.7
- T/NT ([4]; Kidney): 0.2 ± 0.03
- T/NT ([4]; Liver): 0.3 ± 0.1
- T/NT ([4]; Lungs): 3.5 ± 0.7
- T/NT ([4]; Spleen): 0.5 ± 0.1
- T/NT ([4]; Tumor): 1

Structure (SMILES): COc1cccc2c1C(=O)c1c(O)c3c(c(O)c1C2=O)C[C@@](O)(C(=O)CO)C[C@@H]3O[C@H]1C[C@H](NC(=O)CSC[C@H](NC(C)=O)C(=O)N[C@@H](CCCCNC(=O)CN(CCN(CCN(CC(=O)O)CC(=O)O)CC(=O)O)CC(=O)O)C(=O)N[C@@H](Cc2ccc(O)cc2)C(=O)N[C@@H](CCCCNC(=O)CN(CCN(CCN(CC(=O)O)CC(=O)O)CC(=O)O)CC(=O)O)C(N)=O)[C@H](O)[C@H](C)O1 [IMP 225]
- tissue uptake at 1 h ([5]; NCRNU nude, Spleen, 1 h): 1.6 ± 2.4 %ID/g
- tissue uptake at 1 h ([5]; nude (Taconic NCRNU), Blood, 1 h): 2 ± 0.4 %ID/g
- tissue uptake at 4 h ([5]; nude (Taconic NCRNU), Blood, 4 h): 1.3 ± 0.2 %ID/g
- tissue uptake at 24 h ([5]; nude (Taconic NCRNU), Blood, 24 h): 0.4 ± 0.2 %ID/g
- tissue uptake at 1 h ([5]; nude (Taconic NCRNU), GW-39, 1 h): 14.6 ± 14 %ID/g
- tissue uptake at 4 h ([5]; nude (Taconic NCRNU), GW-39, 4 h): 16.5 ± 4.8 %ID/g
- tissue uptake at 24 h ([5]; nude (Taconic NCRNU), GW-39, 24 h): 10.1 ± 2.3 %ID/g
- tissue uptake at 1 h ([5]; nude (Taconic NCRNU), Kidney, 1 h): 3.8 ± 0.9 %ID/g
- tissue uptake at 4 h ([5]; nude (Taconic NCRNU), Kidney, 4 h): 3.8 ± 0.4 %ID/g
- tissue uptake at 24 h ([5]; nude (Taconic NCRNU), Kidney, 24 h): 1.7 ± 0.3 %ID/g
- tissue uptake at 1 h ([5]; nude (Taconic NCRNU), Large Int., 1 h): 0.2 %ID/g
- tissue uptake at 4 h ([5]; nude (Taconic NCRNU), Large Int., 4 h): 0.3 ± 0.1 %ID/g
- tissue uptake at 24 h ([5]; nude (Taconic NCRNU), Large Int., 24 h): 0.1 %ID/g
- tissue uptake at 1 h ([5]; nude (Taconic NCRNU), Liver, 1 h): 0.4 ± 0.2 %ID/g
- tissue uptake at 4 h ([5]; nude (Taconic NCRNU), Liver, 4 h): 0.4 ± 0.1 %ID/g
- tissue uptake at 24 h ([5]; nude (Taconic NCRNU), Liver, 24 h): 0.3 ± 0.1 %ID/g
- tissue uptake at 1 h ([5]; nude (Taconic NCRNU), Lungs, 1 h): 0.8 ± 0.4 %ID/g
- tissue uptake at 4 h ([5]; nude (Taconic NCRNU), Lungs, 4 h): 0.6 ± 0.1 %ID/g
- tissue uptake at 24 h ([5]; nude (Taconic NCRNU), Lungs, 24 h): 0.2 ± 0.1 %ID/g
- tissue uptake at 1 h ([5]; nude (Taconic NCRNU), Muscle, 1 h): 0.3 ± 0.2 %ID/g
- tissue uptake at 4 h ([5]; nude (Taconic NCRNU), Muscle, 4 h): 0.2 %ID/g
- tissue uptake at 24 h ([5]; nude (Taconic NCRNU), Muscle, 24 h): 0.1 %ID/g
- tissue uptake at 1 h ([5]; nude (Taconic NCRNU), Small Int., 1 h): 0.4 ± 0.1 %ID/g
- tissue uptake at 4 h ([5]; nude (Taconic NCRNU), Small Int., 4 h): 0.3 ± 0.2 %ID/g
- tissue uptake at 24 h ([5]; nude (Taconic NCRNU), Small Int., 24 h): 0.1 %ID/g
- tissue uptake at 4 h ([5]; nude (Taconic NCRNU), Spleen, 4 h): 0.4 ± 0.1 %ID/g
- tissue uptake at 24 h ([5]; nude (Taconic NCRNU), Spleen, 24 h): 0.4 ± 0.1 %ID/g
- tissue uptake at 1 h ([5]; nude (Taconic NCRNU), Stomach, 1 h): 1.1 ± 0.9 %ID/g
- tissue uptake at 4 h ([5]; nude (Taconic NCRNU), Stomach, 4 h): 0.4 ± 0.2 %ID/g
- tissue uptake at 24 h ([5]; nude (Taconic NCRNU), Stomach, 24 h): 0.1 %ID/g
- tissue uptake at 1 h ([5]; nude (Taconic NCRNU), Tail, 1 h): 1.2 ± 0.1 %ID/g
- tissue uptake at 4 h ([5]; nude (Taconic NCRNU), Tail, 4 h): 0.8 ± 0.2 %ID/g
- tissue uptake at 24 h ([5]; nude (Taconic NCRNU), Tail, 24 h): 0.5 ± 0.7 %ID/g
